Experimental data taken from the supplement of paper PMC10126150.
± gives the standard deviation of the averaged measurements.

The sequences below were run on ATP (assay: switch fluorescence ratio, 500 uM ATP over buffer (Cy3 cluster intensity, sum of 5 cycles each) (fold (ratio)); higher = stronger signal-on switching upon ATP binding; sequences stand for … in TCGTCGGCAGCGTCAGATGTGTATAAGAGACAGTTTTTTTTTTTTTTTTTTTTTTTTT…TC). Conditions: aptamer strand: ATP DNA aptamer (quencher-CACCTGGGGGAGTATTGCGGAGGAAGG + anchor), 100 nM annealed; ATP concentration: 500 uM.
Summary of the method: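 After annealing to 100 nM quencher-labelled ATP aptamer, Cy3-labelled switching-strand clusters on a modified Illumina MiSeq flow-cell were imaged in selection buffer. A second image followed after 15 min with 500 uM ATP at 22 °C, and five such buffer/ATP cycles were done, each separated by NaOH stripping and re-annealing. The fluorescence ratio, averaged per switch-domain sequence, is summed target-cycle over summed buffer-cycle Cy3 intensity per cluster, with clusters outside 100-1000 RFU excluded.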
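Further: ATP exposure 15 min at 22 °C before imaging.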

Sequence	switch fluorescence ratio
TTTGTACTTT	1.01 ± 0.041
TTTGTAGGGA	1.02 ± 0.028
TTTGTATAGT	1.003 ± 0.0019
TTTGTATGG	0.9819 ± 0.0042
TTTGTATGGG	0.972 ± 0.018
TTTGTCAAAC	1.11 ± 0.13
TTTGTCATGG	1.04 ± 0.037
TTTGTCGCAT	1.14 ± 0.067
TTTGTCGCGG	1.02 ± 0.025
TTTGTCTGTG	0.983 ± 0.03
TTTGTGAATT	0.972 ± 0.012
TTTGTGATCA	0.998 ± 0.032
TTTGTGCACC	0.9941 ± 0.005
TTTGTGCGTC	0.977 ± 0.055
TTTGTGGACG	1.08 ± 0.08
TTTGTGGCTG	0.986 ± 0.037
TTTGTGGGC	0.981 ± 0.028
TTTGTGGGTA	1.01 ± 0.039
TTTGTGGTGG	1.01 ± 0.012
TTTGTGTAAA	1 ± 0.032
TTTGTGTGCG	0.904 ± 0.047
TTTGTGTGGA	1.03 ± 0.0059

Sequence	switch fluorescence ratio
TTTGTGTGGG	1.03 ± 0.03
TTTGTTAAG	1.02 ± 0.018
TTTGTTAGAT	0.993 ± 0.022
TTTGTTAGGT	1 ± 0.031
TTTGTTATAT	0.9839 ± 0.0039
TTTGTTCGGA	0.9795 ± 0.0059
TTTGTTGAAA	1.02 ± 0.018
TTTGTTGAGC	1.44 ± 0.66
TTTGTTGAGT	1 ± 0.026
TTTGTTGATA	0.983 ± 0.032
TTTGTTGGTG	1 ± 0.029
TTTGTTTAAA	0.974 ± 0.027
TTTGTTTAAG	0.973 ± 0.012
TTTGTTTCAC	1.04 ± 0.043
TTTGTTTGCA	1.01 ± 0.054
TTTGTTTGTA	1.01 ± 0.017
TTTGTTTTAG	0.983 ± 0.031
TTTGTTTTAT	1 ± 0.034
TTTGTTTTTT	0.994 ± 0.03
TTTTAAAACT	1.05 ± 0.039
TTTTAAACAG	1.028 ± 0.0066
TTTTAAAGGA	1 ± 0.023

Sequence	switch fluorescence ratio
TTTTAAAGGC	1.02 ± 0.031
TTTTAAATAG	1.01 ± 0.024
TTTTAACACT	1.035 ± 0.0085
TTTTAACCGG	0.974 ± 0.025
TTTTAACCTA	1.01 ± 0.019
TTTTAACGGA	1.03 ± 0.041
TTTTAAGAAA	3.11 ± 3
TTTTAAGAGT	0.992 ± 0.028
TTTTAAGATT	0.999 ± 0.047
TTTTAAGCAA	1.53 ± 0.17
TTTTAAGCCG	1.01 ± 0.069
TTTTAAGGAT	1 ± 0.024
TTTTAAGGGG	1.02 ± 0.046
TTTTAAGTCG	1.05 ± 0.014
TTTTAAGTGC	1 ± 0.027
TTTTAATCAG	0.9842 ± 0.0036
TTTTAATGGT	1.02 ± 0.03
TTTTAATTAT	1.05 ± 0.026
TTTTAATTG	0.961 ± 0.038
TTTTAATTTA	1.03 ± 0.043
TTTTACAAGT	0.982 ± 0.03
TTTTACAATT	0.9885 ± 0.0015

Sequence	switch fluorescence ratio
TTTTACAGCC	1.052 ± 0.0051
TTTTACCAG	1.02 ± 0.051
TTTTACCGAT	1.01 ± 0.034
TTTTACCGT	0.996 ± 0.012
TTTTACCTAT	1.04 ± 0.021
TTTTACGTCA	1.21 ± 0.073
TTTTACTGAT	1.02 ± 0.026
TTTTACTTGG	0.993 ± 0.015
TTTTACTTTT	1.01 ± 0.037
TTTTAGAGAG	0.997 ± 0.019
TTTTAGAGCG	1.02 ± 0.025
TTTTAGAGGA	0.9736 ± 0.0013
TTTTAGATTT	0.995 ± 0.026
TTTTAGGATG	0.996 ± 0.025
TTTTAGGCAT	1.01 ± 0.031
TTTTAGGGGA	1.01 ± 0.025
TTTTAGGGGT	1.02 ± 0.046
TTTTAGGTCA	0.9901 ± 0.0063
TTTTAGTCGT	0.991 ± 0.02
